The values that follow come from patent US20230126400A1.

Assay [1] concerns the target human MS4A4A (human) (UniProt Q96JQ5). The experiment in a line: functional affinity, FACS titration on stably transfected 300.19 cells.
Assay [2] shares this target. As to the kind of experiment: flow cytometry (anti-mouse IgG Fc-APC) on U937 cells transfected with human MS4A4A (Plate B); untransfected U937 cells (Plate A): mean 259.
Assay [3] concerns the target cynomolgus (cyno) MS4A4A (cynomolgus). The experiment in a line: flow cytometry (anti-mouse IgG Fc-APC) on 300.19 cells transfected with cyno MS4A4A (Plate E); untransfected 300.19 cells (Plate C): mean 110.
The target of assay [4] is human MS4A4A (human) (UniProt Q96JQ5). As to the kind of experiment: flow cytometry (anti-mouse IgG Fc-APC) on 300.19 cells transfected with human MS4A4A (Plate D); untransfected 300.19 cells (Plate C): mean 110.
The target in assay [5] is human MS4A4A-GFP 4A.Ala.35 (ECL2 deletion of GNS) (human) (UniProt Q96JQ5). The experiment in a line: FACS, HEK293T.
The target of assay [6] is human MS4A4A (human) (UniProt Q96JQ5). The experiment in a line: flow cytometry (anti-mouse IgG Fc-APC) on HEK293 cells transiently transfected with human MS4A4A (h4A_293); 293 parental cells: mean 131.
The target in assay [7] is cynomolgus (cyno) MS4A4A (cynomolgus). As to the kind of experiment: flow cytometry (anti-mouse IgG Fc-APC) on HEK293 cells transiently transfected with cyno MS4A4A (cy4A_293); 293 parental cells: mean 131.
Assay [8] has as its target human MS4A4A (human) (UniProt Q96JQ5). As to the kind of experiment: flow cytometry (anti-mouse IgG Fc-APC) on U937 cells transfected with human MS4A4A (Plate B); untransfected U937 cells (Plate A): mean 387.
The target is the same in assay [9]. The experiment in a line: flow cytometry (anti-mouse IgG Fc-APC) on U937 cells transfected with human MS4A4A (Plate B); untransfected U937 cells (Plate A): mean 240; no primary antibody on Plate B: 246.
The target in assay [10] is cynomolgus (cyno) MS4A4A (cynomolgus). As to the kind of experiment: flow cytometry (anti-mouse IgG Fc-APC) on 300.19 cells transfected with cyno MS4A4A (Plate E); untransfected 300.19 cells (Plate C): mean 111; no primary antibody on Plate E: 122.
Assay [11] deals with human MS4A4A (human) (UniProt Q96JQ5). The experiment in a line: flow cytometry (anti-mouse IgG Fc-APC) on 300.19 cells transfected with human MS4A4A (Plate D); untransfected 300.19 cells (Plate C): mean 111; no primary antibody on Plate D: 177.
Assay [12] shares this target. The experiment in a line: flow cytometry (anti-mouse IgG Fc-APC) on U937 cells transfected with human MS4A4A (Plate B); untransfected U937 cells (Plate A): mean 229; no primary antibody on Plate B: 246.
The target in assay [13] is cynomolgus (cyno) MS4A4A (cynomolgus). As to the kind of experiment: flow cytometry (anti-mouse IgG Fc-APC) on 300.19 cells transfected with cyno MS4A4A (Plate E); untransfected 300.19 cells (Plate C): mean 106; no primary antibody on Plate E: 122.
For assay [14], the target named is human MS4A4A (human) (UniProt Q96JQ5). As to the kind of experiment: flow cytometry (anti-mouse IgG Fc-APC) on 300.19 cells transfected with human MS4A4A (Plate D); untransfected 300.19 cells (Plate C): mean 106; no primary antibody on Plate D: 177.
For assay [15] the target is unchanged. The experiment in a line: flow cytometry (anti-mouse IgG Fc-APC) on U937 cells transfected with human MS4A4A (Plate B); untransfected U937 cells (Plate A): mean 247; no primary antibody on Plate B: 246.

For anti-MS4A4A antibody 3F2 (Millipore), the Kd with human MS4A4A (human) [1] was determined as 0.0095 µM. The figures for the Mean : APC-A (in the assay with human MS4A4A (human) [2]; in [3]; with human MS4A4A (human) [4]) were 14300, 128 and 21100, respectively.

In the assay with human MS4A4A (human) [1], anti-MS4A4A antibody 4H2 (Kerafast) came in with a Kd of 0.01 µM. This counts as double-digit nanomolar.

With anti-MS4A4A antibody 5C12 (BioLegend), the % binding compared to wildtype MS4A4A in assay [5] turned out to be 1%. The same substance registered a Kd in the assay with human MS4A4A (human) [1] of 0.027 µM. The Mean : APC-A with human MS4A4A (human) [6] stood at 7160; in assay [7], 158; with human MS4A4A (human) [8] it was 15000; in assay [3], 129; in the assay with human MS4A4A (human) [4], 19500.

Regarding msIgG1 Isotype Ctrl (antibody), the Mean : APC-A with human MS4A4A (human) [9] is 248; in assay [10], 116; in the assay with human MS4A4A (human) [11] it was 181.

On to msIgG2a Isotype Ctrl (antibody), for which the results for the Mean : APC-A (in the assay with human MS4A4A (human) [12]; in assay [13]; in the assay with human MS4A4A (human) [14]) were 243, 109 and 155, respectively.

On to msIgG2b Isotype Ctrl (antibody), for which the Mean : APC-A amounted to 234 in the assay with human MS4A4A (human) [15], 107 in [10] and 155 with human MS4A4A (human) [11].
